{"source": "paper PMC3715477", "biological_target": "CC-Gp047 (residues 1040–1365 of Gp047, putative receptor binding protein of C. jejuni phage NCTC12673) (Campylobacter jejuni phage NCTC12673)", "test": "SDS-resistant oligomers (method not named; data not shown); data not shown; oligomers called SDS-resistant; construct and conditions not told", "data": [{"substance": "CC-Gp047 (residues 1040–1365 of Gp047, putative receptor binding protein of C. jejuni phage NCTC12673) (domain or fragment)", "values": [{"measurement": "stoichiometry N", "result": "> 3"}]}]}
